Consider two substances from article PMC4117571.

The data set concerns hnRNP A1 (endogenous) ((SF268 cells)). Briefly: pull-down, competition, immunoblot. The following applies: biotin-16-UTP incorporated; 5 mM HEPES pH 7.1, 40 mM KCl, 0.1 mM EDTA, 2 mM MgCl2, 2 mM DTT, RNasin, 0.25 mg/ml heparin; 200 ug SF268 extract, 3 ug RNA, 100 ul; 15 min 30 C, then beads …. For orientation: Immunoblotting shows a protein as a band on a membrane.

As to EV71 5'UTR, the binding signal (% reduction of bound hnRNP A1) was determined as 73.

Turning to EV71 SL-II, the binding signal (% reduction of bound hnRNP A1) was found to be 80.
